Measurements taken from patent publication US20240327519A1 (Genentech, published 2024).

Key:
[1] = molecular target: PD-1 (programmed cell death protein 1), as parameterised in the receptor occupancy model (UniProt Q15116 25-167, limits assumed); assay: assay not stated; parameter of the mPBPK tumor receptor occupancy model
[2] = molecular target: T1, LAG3 (lymphocyte activation gene-3), as parameterised in the receptor occupancy model (UniProt P18627 23-450, limits assumed); assay: assay not stated; parameter of the mPBPK tumor receptor occupancy model; input parameter of the PK/receptor occupancy model; assay not stated
T1 construct: also called CD223
T1 sequence (looked up): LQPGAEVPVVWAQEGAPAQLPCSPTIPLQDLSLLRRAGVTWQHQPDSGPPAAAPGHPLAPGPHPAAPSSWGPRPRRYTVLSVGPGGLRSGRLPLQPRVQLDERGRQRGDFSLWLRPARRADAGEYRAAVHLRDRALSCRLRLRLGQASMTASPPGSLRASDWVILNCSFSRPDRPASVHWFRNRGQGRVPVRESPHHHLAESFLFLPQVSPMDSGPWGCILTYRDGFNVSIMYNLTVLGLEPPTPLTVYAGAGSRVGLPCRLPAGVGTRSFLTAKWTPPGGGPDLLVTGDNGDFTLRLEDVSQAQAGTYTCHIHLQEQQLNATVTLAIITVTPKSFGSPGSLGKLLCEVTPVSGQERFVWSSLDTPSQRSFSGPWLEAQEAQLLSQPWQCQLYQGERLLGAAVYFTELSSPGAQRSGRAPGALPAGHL

Chain of PD-1 (programmed cell death protein 1), as parameterised in the receptor occupancy model (Q15116 25-167 limits assumed): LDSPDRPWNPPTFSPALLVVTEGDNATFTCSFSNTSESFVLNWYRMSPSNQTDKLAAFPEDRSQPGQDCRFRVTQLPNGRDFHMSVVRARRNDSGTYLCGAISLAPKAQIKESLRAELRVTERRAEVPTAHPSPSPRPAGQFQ

B1: RO7247669 (PD1-LAG3), anti-PD-1/LAG3 bispecific antibody (bispecific antibody, human IgG1, kappa, L234A L235A)
heavy 1: not shown
light 1: EVQLLESGGGLVQPGGSLRLSCAASGFSFSSYTMSWVRQAPGKGLEWVATISGGGRDIYYPDSVKGRFTISRDNSKNTLYLQMNSLRAEDTAVYYCVLLTGRVYFALDSWGQGTLVTVSSASVAAPSVFIFPPSDEQLKSGTASVVCLLNNFYPREAKVQWKVDNALQSGNSQESVTEQDSKDSTYSLSSTLTLSKADYEKHKVYACEVTHQGLSSPVTKSFNRGEC
heavy 2: EVQLLESGGGLVQPGGSLRLSCAASGFIFDDYTMNWVRQAPGKGLEWVAVISWDGGGTYYTDSVKGRFTISRDDFKNTLYLQMNSLRAEDTAVYYCAKGLTDTTLYGSDYWGQGTLVTVSSASTKGPSVFPLAPSSKSTSGGTAALGCLVEDYFPEPVTVSWNSGALTSGVHTFPAVLQSSGLYSLSSVVTVPSSSLGTQTYICNVNHKPSNTKVDEKVEPKSCDKTHTCPPCPAPEAAGGPSVFLFPPKPKDTLMISRTPEVTCVVVDVSHEDPEVKFNWYVDGVEVHNAKTKPREEQYNSTYRVVSVLTVLHQDWLNGKEYKCKVSNKALGAPIEKTISKAKGQPREPQVCTLPPSRDELTKNQVSLSCAVKGFYPSDIAVEWESNGQPENNYKTTPPVLDSDGSFFLVSKLTVDKSRWQQGNVFSCSVMHEALHNHYTQKSLSLSPGK
light 2: not shown
notes: also called PD-1 BsAb; bsAb RO7247669
For B1, the Kd [1] was 0.25 nM and the Kd [2] was 0.78 nM.
